This is an account of results in paper PMC7960600, “A DARPin targeting activated Mac-1 is a novel diagnostic tool and potential anti-inflammatory agent in myocarditis, sepsis and myocardial infarction” (Basic Research in Cardiology, 2021).

The experiment deals with T1, human ICAM-1 (R&D Systems) (human, UniProt P05362 28-480).
T1 construct: ICAM-1, human, recombinant, bought; No catalogue number printed; also called recombinant human ICAM-1; source: bought: R&D Systems
Description: ELISA; 96-well Maxisorb plates coated with 0.1 µM human or mouse ICAM-1 (or BSA, 30 µM); recombinant human or mouse αM I-domain added; anti-His-HRP, OD 450 nm. Particulars: both partners purified. In general terms: ELISA stands for enzyme-linked immunosorbent assay.

T1 sequence (P05362 28-480): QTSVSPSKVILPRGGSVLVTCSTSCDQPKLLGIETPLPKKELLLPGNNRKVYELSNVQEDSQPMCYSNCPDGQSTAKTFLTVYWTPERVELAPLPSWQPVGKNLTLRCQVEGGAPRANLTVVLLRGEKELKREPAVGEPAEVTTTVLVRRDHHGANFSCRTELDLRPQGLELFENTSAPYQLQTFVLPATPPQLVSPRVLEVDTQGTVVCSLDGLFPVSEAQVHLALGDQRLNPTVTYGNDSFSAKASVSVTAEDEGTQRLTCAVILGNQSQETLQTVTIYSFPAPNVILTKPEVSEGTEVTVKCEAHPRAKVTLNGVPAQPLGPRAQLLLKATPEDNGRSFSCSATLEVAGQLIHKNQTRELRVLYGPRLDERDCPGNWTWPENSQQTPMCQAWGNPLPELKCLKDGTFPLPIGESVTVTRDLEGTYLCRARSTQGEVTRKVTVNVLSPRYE

B1: recombinant human αM I-domain (wild type) (domain or fragment)
chain: RQQPQKFPEALRGCPQEDSDIAFLIDGSGSIIPHDFRRMKEFVSTVMEQLKKSKTLFSLMQYSEEFRIHFTFKEFQNNPNPRSLVKPITQLLGRTHTATGIRKVVRELFNITNGARKNAFKILVVITDGEKFGDPLGYEDVIPEADREGVIRYVIGVGDAFRSEKSRQELNTIASKPPRDHVFQVNNFEALKTIQNQLREKIFAIEGTQTGSSSSFEHEMSQEGFSAAALEHHHHHH
notes: I-domain of the αM chain (CD11b) of human Mac-1; no start methionine or leader is printed; source: E. coli BL21 DE3 (vector pET-20b(+)), purified (Ni beads, dialysed against PBS); not shown: His6, C-terminal, kept
As for B1, the binding result is “binds”.
